B1: Kelch repeat and BTB domain-containing protein 6 (Homo sapiens), Q86V97 (parent)
chain: MQSREDAPRSRRLASPRGGKRPKKIHKPTVSAFFTGPEELKDTAHSAALLAQLKSFYDARLLCDVTIEVVTPGSGPGTGRLFPCNRNVLAAACPYFKSMFTGGMYESQQASVTMHDVDAESFEVLVDYCYTGRVSLSEANVERLYAASDMLQLEYVREACASFLARRLDLTNCTAILKFADAFGHRKLRSQAQSYIAQNFKQLSHMGSIREETLADLTLAQLLAVLRLDSLDVESEQTVCHVAVQWLEAAPKERGPSAAEVFKCVRWMHFTEEDQDYLEGLLTKPIVKKYCLDVIEGALQMRYGDLLYKSLVPVPNSSSSSSSSNSLVSAAENPPQRLGMCAKEMVIFFGHPRDPFLCCDPYSGDLYKVPSPLTCLAHTRTVTTLAVCISPDHDIYLAAQPRTDLWVYKPAQNSWQQLADRLLCREGMDVAYLNGYIYILGGRDPITGVKLKEVECYNVKRNQWALVAPLPHSFLSFDLMVIRDYLYALNSKRMFCYDPSHNMWLKCVSLKRNDFQEACVFNEEIYCICDIPVMKVYNPVRAEWRQMNNIPLVSETNNYRIIKHGQKLLLITSRTPQWKKNRVTVYEYDIRGDQWINIGTTLGLLQFDSNFFCLSARVYPSCLEPGQSFLTEEEEIPSESSTEWDLGGFSEPDSESGSSSSLSDDDFWVRVAPQ
B2: Kelch repeat and BTB domain-containing protein 7 (Homo sapiens), Q8WVZ9 (parent)
chain: MQSREDVPRSRRLASPRGGRRPKRISKPSVSAFFTGPEELKDTAHSAALLAQLKSFYDARLLCDVTIEVVTPGSGPGTGRLFSCNRNVLAAACPYFKSMFTGGMYESQQASVTMHDVDAESFEVLVDYCYTGRVSLSEANVQRLYAASDMLQLEYVREACASFLARRLDLTNCTAILKFADAFDHHKLRSQAQSYIAHNFKQLSRMGSIREETLADLTLAQLLAVLRLDSLDIESERTVCHVAVQWLEAAAKERGPSAAEVFKCVRWMHFTEEDQDYLEGLLTKPIVKKYCLDVIEGALQMRYGDLLYKSLVPVPNSSSSSSSSNSLVSAAENPPQRLGMCAKEMVIFFGHPRDPFLCYDPYSGDIYTMPSPLTSFAHTKTVTSSAVCVSPDHDIYLAAQPRKDLWVYKPAQNSWQQLADRLLCREGMDVAYLNGYIYILGGRDPITGVKLKEVECYSVQRNQWALVAPVPHSFYSFELIVVQNYLYAVNSKRMLCYDPSHNMWLNCASLKRSDFQEACVFNDEIYCICDIPVMKVYNPARGEWRRISNIPLDSETHNYQIVNHDQKLLLITSTTPQWKKNRVTVYEYDTREDQWINIGTMLGLLQFDSGFICLCARVYPSCLEPGQSFITEEDDARSESSTEWDLDGFSELDSESGSSSSFSDDEVWVQVAPQRNAQDQQGSL

Variants of: B1
Conditions: with tiam1_human TIAM1, Q13009
Target sequence in this assay (Q13009 whole entry): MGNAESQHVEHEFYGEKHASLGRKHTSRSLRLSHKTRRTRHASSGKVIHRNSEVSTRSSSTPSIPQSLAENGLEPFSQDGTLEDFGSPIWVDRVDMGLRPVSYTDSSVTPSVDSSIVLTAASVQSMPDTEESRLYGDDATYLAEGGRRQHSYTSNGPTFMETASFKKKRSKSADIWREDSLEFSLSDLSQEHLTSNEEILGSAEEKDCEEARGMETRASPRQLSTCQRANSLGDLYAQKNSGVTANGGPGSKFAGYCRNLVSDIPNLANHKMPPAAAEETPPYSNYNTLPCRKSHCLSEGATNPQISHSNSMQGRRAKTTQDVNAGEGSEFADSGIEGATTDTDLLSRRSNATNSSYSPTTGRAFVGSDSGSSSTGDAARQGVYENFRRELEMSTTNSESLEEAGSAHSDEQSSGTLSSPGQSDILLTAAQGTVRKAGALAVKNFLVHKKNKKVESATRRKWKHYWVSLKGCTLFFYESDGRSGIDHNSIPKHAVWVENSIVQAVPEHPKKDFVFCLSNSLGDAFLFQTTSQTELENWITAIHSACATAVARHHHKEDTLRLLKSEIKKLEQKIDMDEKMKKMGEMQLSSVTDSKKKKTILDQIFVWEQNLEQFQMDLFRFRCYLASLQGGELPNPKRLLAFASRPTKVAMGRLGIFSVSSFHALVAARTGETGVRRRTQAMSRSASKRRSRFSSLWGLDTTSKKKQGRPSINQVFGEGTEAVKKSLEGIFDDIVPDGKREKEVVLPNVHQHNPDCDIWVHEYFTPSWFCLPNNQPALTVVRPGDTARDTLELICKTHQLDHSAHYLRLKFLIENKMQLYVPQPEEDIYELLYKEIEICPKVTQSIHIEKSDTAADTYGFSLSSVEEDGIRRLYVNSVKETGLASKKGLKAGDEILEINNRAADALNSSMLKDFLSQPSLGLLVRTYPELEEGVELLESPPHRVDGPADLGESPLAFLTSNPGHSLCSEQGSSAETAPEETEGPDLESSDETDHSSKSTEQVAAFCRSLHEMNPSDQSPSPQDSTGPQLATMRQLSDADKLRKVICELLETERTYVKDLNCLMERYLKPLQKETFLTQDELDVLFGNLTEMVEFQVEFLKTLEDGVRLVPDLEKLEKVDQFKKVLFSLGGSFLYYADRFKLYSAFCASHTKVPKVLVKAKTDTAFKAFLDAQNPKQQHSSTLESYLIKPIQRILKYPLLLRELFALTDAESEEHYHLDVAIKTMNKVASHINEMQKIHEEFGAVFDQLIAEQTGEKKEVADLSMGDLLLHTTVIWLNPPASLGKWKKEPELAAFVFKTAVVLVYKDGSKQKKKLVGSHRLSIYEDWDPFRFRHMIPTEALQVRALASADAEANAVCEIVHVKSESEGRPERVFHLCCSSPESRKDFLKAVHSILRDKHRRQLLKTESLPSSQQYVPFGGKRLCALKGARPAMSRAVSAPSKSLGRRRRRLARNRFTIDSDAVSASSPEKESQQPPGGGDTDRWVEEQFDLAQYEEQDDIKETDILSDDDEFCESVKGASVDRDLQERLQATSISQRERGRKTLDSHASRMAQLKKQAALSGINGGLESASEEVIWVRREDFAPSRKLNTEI

| Variant | effect of a mutation on the interaction |
| --- | --- |
| W668A | decreasing interaction strength |

Variants of: B1
Conditions: with cul3_human CUL3, Q13618

| Variant | effect of a mutation on the interaction |
| --- | --- |
| M99A | disrupting interaction strength |

Variants of: B2
Conditions: with gbrap_human GABARAP

| Variant | effect of a mutation on the interaction |
| --- | --- |
| Y559A | with no effect |
| F122A | with no effect |
| W668A | decreasing interaction strength |
| F649A | with no effect |

Variants of: B2
Conditions: with gbrl2_human GABARAPL2, P60520
Chain of gbrl2_human GABARAPL2, P60520 (P60520 whole entry): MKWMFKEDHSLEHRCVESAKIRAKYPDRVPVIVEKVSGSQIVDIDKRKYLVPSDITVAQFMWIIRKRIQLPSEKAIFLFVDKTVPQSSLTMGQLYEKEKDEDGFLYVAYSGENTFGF

| Variant | effect of a mutation on the interaction |
| --- | --- |
| Y559A | with no effect |
| F122A | with no effect |
| W668A | with no effect |
| F649A | with no effect |

Variants of: B2
Conditions: with mlp3b_human MAP1LC3B

| Variant | effect of a mutation on the interaction |
| --- | --- |
| Y559A | with no effect |
| F122A | with no effect |
| W668A | disrupting interaction strength |
| F649A | with no effect |

Variants of: B2
Conditions: with tiam1_human TIAM1, Q13009
Target sequence in this assay (Q13009 whole entry): as the sequence (Q13009 whole entry) above

| Variant | effect of a mutation on the interaction |
| --- | --- |
| M99A | with no effect |
| W668A | decreasing interaction strength |

Variants of: B2
Conditions: with cul3_human CUL3, Q13618

| Variant | effect of a mutation on the interaction |
| --- | --- |
| M99A | disrupting interaction strength |

Reference: IntAct's records for PubMed 25684205
